The Human Domainome abundance scans (Beltran et al. 2025)

B1: GAS2-like protein 1, residues 209 to 276; numbered along this chain, Q99501 (parent)
chain: DELVREILGRCTCPDQFPMIKVSEGKYRVGDSSLLIFVRVLRSHVMVRVGGGWDTLEHYLDKHDPCRC

Variants of: B1
Assay: abundance fitness (aPCA) (normalised: wild type 0, dead -1); higher = more abundant; growth selection in yeast, the domain comes from the species named
Conditions: Homo sapiens

Abundance fitness, by site and new letter:
E57: L -0.873, S -0.388, I -0.669, T -0.365, C -0.993, F -0.958, P -0.922, D -0.21, K -0.598, V -0.765, H -0.669, Q -0.235, R -0.899, G -0.627
R42: G 0.121, N 0.119, C -0.187, M -0.1, T -0.334, E -0.136, D 0.134, P -0.424, I -0.913, H 0.074, Y -0.155, S -0.143, F -0.246, W -0.289, A -0.066, V -0.639, L -0.541, Q -0.005
D54: G 0.115, L -0.346
S43: W -0.462, F -0.175, M -0.362, L -0.648, Y -0.405, T -0.011, N 0.124, E 0.164, V -0.58, G 0.253, P 0.01, A -0.158
L56: Q -1.13, F -0.3, W -0.883, N -0.806, S -0.691, D -0.852, M -0.628, E -0.965, Y -0.716, G -0.546, C -0.916, V -0.967, H -0.959, I -0.485, A -0.944, K -0.868
T55: A -0.545, N -0.185, D -0.431, V -0.773, S 0.027, M -0.512, I -0.817, Y -0.033, L -0.145, W -0.801, K -0.489, P -0.282, C -0.785, Q -0.431, H -0.399, R -0.09, G -0.815, F -0.263
R48: G -0.236, W -0.366, L -0.495, D -0.256, T -0.628, E -0.191, Y -0.166, K 0.142, N 0.087, C -0.224, P -0.539, M -0.225, S 0.039, A -0.446, H -0.102, Q -0.133, I -0.542, V -0.784, F -0.404
G51: Y -0.286, W -0.512, P -0.206, A 0.024, I -0.544, L -0.219, T 0.032, E 0.229, D 0.176, M -0.15, K 0.056, H 0.004, V -0.363, R -0.159, Q -0.015, C -0.157
G50: E 0.011, H -0.205, L -0.473, P -0.039, Y -0.5, V -0.541, A -0.08, C -0.517, M -0.28, R -0.18, S -0.143, D 0.076, N 0.007, F -0.896, T -0.259, I -0.765, W -0.803, K -0.03, Q -0.017
W53: C -0.485
R39: F -0.172, C -0.216, Q -0.03, A -0.14, T -0.058, I -0.294, E -0.179, G -0.242, P -0.728, H -0.049, M -0.172, S -0.144, L -0.368, D 0.089, Y -0.333, W -0.695, V -0.236
V47: K -0.694, T -0.783, D -0.997, W -0.761, C -0.175, F -0.921, L -0.595, S -1.08, M -0.565, N -1.01, A -0.429, Q -1.08, G -0.851, P -0.888, E -0.99, R -0.979, Y -0.386
V45: I -0.076, L -0.328, Q -0.919, P -0.169, C -0.227, H -0.693, F -0.927, W -0.804, S -0.937, A -0.141, R -0.847, M -0.505
V49: M -0.133, C -0.069, A 0.007, I -0.133, S -0.048, Q 0.146, G -0.25, L -0.319, Y -0.035, D 0.256, F -0.337, K -0.324, R -0.247, N 0.013
M46: D -0.931, P -0.476, K -0.601, R -0.541, S -0.642, L -0.056, V -0.322, G -0.666, I -0.186, T -0.299, C -0.24, Y 0.109, A -0.596, H -0.332, Q -0.093, E -0.455
H58: A 0.043, K -0.138, C -0.3, G 0.008, E -0.102, F -0.877
V40: Y -0.26, P -0.44, E -0.196, K 0.129, H -0.308, Q -0.28, R -0.025, T -0.137, W -0.661, S -0.319, N 0.029, F -0.369, M -0.259, G -0.349, C -0.097
I36: S -0.673, Y -0.444, W -0.705, C 0.169, F -0.346, K -0.398, Q -0.992, G -0.683, P -0.592, D -0.863, V -0.017, T -0.314, R -0.542, L 0.148, M 0.058, A -0.209
L41: A -0.148, H 0.175, E 0.143, P -0.86, M 0.098, K -0.171, V 0.149, W 0.032, R 0.042, C -0.09, G -0.293, S -0.013, Y 0.086, Q 0.13, I 0.148, F -0.143, D 0.011, N -0.068
V38: G -0.566, M -0.587, P -0.3, A -0.465, S -0.626, I -0.322, F -0.809, N -0.737, T -0.402, Q -0.837, R -0.745, C -0.058, L -0.275
F37: G 0.064, C 0.154, L 0.141, I -0.007, R 0.189, E 0.383, W 0.051, K 0.134, Y -0.07, N 0.31, V 0.054, S 0.306, M 0.066, Q 0.248, P 0.256, A 0.106, D 0.37
H44: A -0.001, N -0.376, L -0.341, C -0.182, Q 0.103, M 0.131, E 0.222, T 0.074, F -0.532, R 0.142, P -0.731, D -0.004, S 0.099, G 0.064, K 0.007, Y -0.515
G52: K 0.136, C -0.071, D 0.013, H 0.077, R 0.021, V 0.089, N -0.032, I -0.038, P -0.669, F -0.068, Y 0.08, L -0.004, S 0.063, A 0.065, T 0.109, Q 0.166
L35: W -0.64, V -0.041, Y -0.022, T 0.072, Q -0.171, R -0.195
